{"source": "paper PMC11560936", "assay_in_all_cases": "ITC", "key": {"[1]": {"target": "Penaeus monodon Rab7 wild type (PmRab7-WT) (Penaeus monodon) (UniProt Q00P14)"}, "[2]": {"target": "Penaeus monodon Rab7 wild type (PmRab7-WT) (Penaeus monodon) (UniProt Q00P14)", "remark": "listed apart in the source"}, "[3]": {"target": "Penaeus monodon Rab7 wild type (PmRab7-WT) (Penaeus monodon) (UniProt Q00P14)", "remark": "listed apart in the source"}, "[4]": {"target": "Penaeus monodon Rab7 L129F mutant (PmRab7-L129F) (Penaeus monodon) (UniProt Q00P14)"}, "[5]": {"target": "Penaeus monodon Rab7 Q67L mutant (PmRab7-Q67L) (Penaeus monodon) (UniProt Q00P14)"}, "[6]": {"target": "Penaeus monodon Rab7 T22N mutant (PmRab7-T22N) (Penaeus monodon) (UniProt Q00P14)"}, "[7]": {"target": "Penaeus monodon Rab7 wild type (PmRab7-WT) (Penaeus monodon) (UniProt Q00P14)", "remark": "listed apart in the source"}, "[8]": {"target": "Penaeus monodon Rab7 wild type (PmRab7-WT) (Penaeus monodon) (UniProt Q00P14)", "remark": "listed apart in the source"}}, "note": "Like-named read-outs stand apart in the source and are kept apart here."}
{"substance": "White spot syndrome virus envelope protein VP28 with His6 tag (VP28-His6) (natural protein)", "values": [{"measurement": "Kd", "setting": "[1]", "value": 0.924, "unit": "µM"}, {"measurement": "dH", "setting": "[1]", "value": -64.4, "unit": "kJ/mol"}, {"measurement": "stoichiometry N", "setting": "[1]", "value": "0.795 VP28:Rab7"}, {"measurement": "Kd", "setting": "[2]", "value": 0.826, "unit": "µM"}, {"measurement": "dH", "setting": "[2]", "value": -71.1, "unit": "kJ/mol"}, {"measurement": "stoichiometry N", "setting": "[2]", "value": "0.738 VP28:Rab7"}, {"measurement": "Kd", "setting": "[3]", "value": 1.92, "unit": "µM"}, {"measurement": "dH", "setting": "[3]", "value": -84.5, "unit": "kJ/mol"}, {"measurement": "stoichiometry N", "setting": "[3]", "value": "0.703 VP28:Rab7"}, {"measurement": "Kd", "setting": "[4]", "value": 0.128, "unit": "µM"}, {"measurement": "dH", "setting": "[4]", "value": -108, "unit": "kJ/mol"}, {"measurement": "stoichiometry N", "setting": "[4]", "value": "0.519 VP28:Rab7"}, {"measurement": "Kd", "setting": "[5]", "value": 1.99, "unit": "µM"}, {"measurement": "dH", "setting": "[5]", "value": -138, "unit": "kJ/mol"}, {"measurement": "stoichiometry N", "setting": "[5]", "value": "0.582 VP28:Rab7"}, {"measurement": "Kd", "setting": "[6]", "value": 0.334, "unit": "µM"}, {"measurement": "dH", "setting": "[6]", "value": -83.7, "unit": "kJ/mol"}, {"measurement": "stoichiometry N", "setting": "[6]", "value": "0.625 VP28:Rab7"}, {"measurement": "Kd", "setting": "[7]", "value": 0.0225, "unit": "µM"}, {"measurement": "dH", "setting": "[7]", "value": -92.5, "unit": "kJ/mol"}, {"measurement": "stoichiometry N", "setting": "[7]", "value": "0.543 VP28:Rab7"}, {"measurement": "Kd", "setting": "[8]", "value": 0.352, "unit": "µM"}, {"measurement": "dH", "setting": "[8]", "value": -30.3, "unit": "kJ/mol"}, {"measurement": "stoichiometry N", "setting": "[8]", "value": "0.682 VP28:Rab7"}]}
